Measurements taken from US20210214410A1 (Stanford University, published 2021).
Positions count from the first letter of the chain named. In names and notes the source's numbering stands. Each block holds one molecule with its values, some of them ahead of it.

Columns and labels:
[1] = biological target: human interleukin 13 receptor alpha 2 (IL-13Rα2), biotinylated (human) (UniProt Q14627); assay: flow cytometry, PE-labelled mouse IgG1, live U87 cells
[2] = biological target: human interleukin 13 receptor alpha 2 (IL-13Rα2), biotinylated (human) (UniProt Q14627); assay: flow cytometry, PE-labelled mouse IgG1, live SKOV3 cells
[3] = biological target: human interleukin 13 receptor alpha 1 (IL-13Rα1), biotinylated ectodomain (human) (UniProt P78552); assay: SPR, kinetic fit
[4] = biological target: human interleukin 13 receptor alpha 1 (IL-13Rα1), biotinylated ectodomain (human) (UniProt P78552); assay: SPR (Biacore T100), biotinylated receptor on SA chip, 1:1 kinetic fit
[5] = biological target: T1, human interleukin 13 receptor alpha 2 (IL-13Rα2), biotinylated (human, UniProt Q14627 27-343, limits assumed, biotinylated (site not stated)); assay: SPR (Biacore T100), biotinylated receptor on SA chip, equilibrium KD
T1 construct: The methods give construct limits only for IL-13Rα1 and IL-4Rα1; For IL-13Rα2 they say only that the biotinylated receptor was captured on the SA chip; also called IL13RA2; CD213a2
T1 sequence (looked up): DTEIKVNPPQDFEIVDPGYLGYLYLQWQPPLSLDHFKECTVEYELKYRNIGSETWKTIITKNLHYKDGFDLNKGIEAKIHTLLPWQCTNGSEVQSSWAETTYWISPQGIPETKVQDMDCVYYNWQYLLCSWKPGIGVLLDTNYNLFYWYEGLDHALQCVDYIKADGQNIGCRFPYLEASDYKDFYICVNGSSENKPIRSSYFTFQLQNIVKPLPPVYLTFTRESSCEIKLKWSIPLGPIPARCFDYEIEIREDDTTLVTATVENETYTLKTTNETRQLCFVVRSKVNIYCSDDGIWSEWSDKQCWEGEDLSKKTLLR
Description: (§1) Surface Plasmon Resonance. SPR experiments were conducted on a Biacore T100 instrument. Experiments used a Biacore SA sensor chip (GE Healthcare). Biotinylated IL-13Rα1 and IL-13Rα2 receptors were captured at a low density (100-200 RU) and kinetic runs were conducted at 40 μL/min. An unrelated biotinylated protein was immobilized as a reference surface for the SA sensor chip with matching RU to the experimental surface. All data was analyzed using the Biacore T100 evaluation software version 2.0 with a 1:1 Langmuir binding model. Serial dilutions of unbiotinylated IL-13 variants in the running buffer [1×HBS-P (GE Healthcare)+0.5% BSA] were flowed over the chip and IL-13Rα1/IL-13Rα2 were regenerated by using one 60 second injections of 7 mM glycine (pH 3.0).

[6] = biological target: T1, human interleukin 13 receptor alpha 2 …; assay: SPR (Biacore T100), biotinylated receptor on SA chip, 1:1 kinetic fit
Description: as §1

[7] = biological target: human interleukin 13 receptor alpha 1 (IL-13Rα1), biotinylated ectodomain (human) (UniProt P78552); assay: SPR (Biacore T100), biotinylated receptor on SA chip, equilibrium KD
[8] = biological target: T1, human interleukin 13 receptor alpha 2 …; assay: SPR, kinetic fit
Description: as §1

% of cells in the PE gate [1]: 0.035%
% of cells in the PE gate [2]: 0.042%
Molecule: Isotype Control (antibody)

Kd [3]: 4.38 nM
koff [3]: 0.022 s⁻¹
kon [3]: 5.21e+06 M⁻¹ s⁻¹
Kd [4]: 4.38 nM
koff [4]: 0.022 s⁻¹
kon [4]: 5.21e+06 M⁻¹ s⁻¹
Molecule: wild-type human IL-13 (from UniProt P35225 34-146) (ligand)

Kd [4]: 18 nM
koff [4]: 0.024 s⁻¹
kon [4]: 1.36e+06 M⁻¹ s⁻¹
Kd [5]: 108 nM
B1: IL-13 variant B4 (R11S, V18I, R86K, D87G, T88S, K89M, L101Y, K104R, K105T) (ligand)
chain: PGPVPPSTALSELIEELINITQNQKAPLCNGSMVWSINPTAGMYCAALESLINVSGCSAIEKTQRMLSGFCPHKVAAGQFSSLHDKGSMIEVAQFVKDLLYHLRTLFREGQFNHHHHHH
notes: also called polypeptide B4

Kd [6]: 0.393 nM
koff [6]: 0.000764 s⁻¹
kon [6]: 1.94e+06 M⁻¹ s⁻¹
Kd [7]: 36000 nM
B2: IL-13 variant C4 (L10V, K89R, L101N, K105E, R108T) (ligand)
chain: PGPVPPSTAVRELIEELVNITQNQKAPLCNGSMVWSINLTAGMYCAALESLINVSGCSAIEKTQRMLSGFCPHKVSAGQFSSLHVRDTRIEVAQFVKDLLNHLKELFTEGQFNHHHHHH
notes: the first is used here; also called polypeptide C4

Kd [6]: 0.003 nM
koff [6]: 5.37e-05 s⁻¹
kon [6]: 1.77e+07 M⁻¹ s⁻¹
Kd [7]: 4100 nM
B3: IL-13 variant D7 (IL-13Rα2-selective IL-13 superkine; L10A, V18F, R86K, D87K, K89R, L101I, K104R, R108K) (ligand)
chain: B2 chain with V10A, V18F, Q64K, S81P, R86K, D87K, N101I, K104R, E105K, T108K
notes: the first is used here; also called polypeptide D7

Kd [6]: 0.0001 nM
koff [6]: 9.18e-07 s⁻¹
kon [6]: 6.41e+06 M⁻¹ s⁻¹
Kd [7]: 1600 nM
B4: IL-13 variant C11 (IL-13Rα2-selective IL-13 superkine; L10H, R86T, D87G, T88R, R108K) (ligand)
chain: B2 chain with V10H, R86T, D87G, T88R, R89K, N101L, E105K, T108K
notes: the first is used here; Made in insect Hi5 cells; also called polypeptide C11

Kd [4]: 1.18 nM
koff [4]: 0.0034 s⁻¹
kon [4]: 2.9e+06 M⁻¹ s⁻¹
Kd [6]: 0.218 nM
koff [6]: 0.0041 s⁻¹
kon [6]: 1.8e+07 M⁻¹ s⁻¹
B5: A7 (ligand)
cytokine: PGPVPPSTAIRELIEELINITQNQKAPLCNGSMVWSINLTAGMYCAALESLINVSGCSAIEKTQRMLSGFCPHKVSAGQFSSLHVRGSKIEVAQFVKDLLHHLRALFREGQFN
notes: also called IL-13 variant A7 (L10I, V18I, D87G, T88S, L101H, K104R, K105A)

Kd [4]: 0.275 nM
koff [4]: 0.0017 s⁻¹
kon [4]: 6.3e+06 M⁻¹ s⁻¹
Kd [6]: 1.5 nM
koff [6]: 0.01 s⁻¹
kon [6]: 7.8e+06 M⁻¹ s⁻¹
B6: B2 (ligand)
cytokine: B5 cytokine with I10L, R86T, H101Y
notes: also called IL-13 variant B2 (V18I, R86T, D87G, T88S, L101Y, K104R, K105A)

Kd [6]: 0.025 nM
koff [6]: 0.00015 s⁻¹
kon [6]: 6.6e+06 M⁻¹ s⁻¹
Kd [7]: 4000 nM
B7: C2 (ligand)
cytokine: B5 cytokine with I10D, R11I, R86K, G87K, S88T, K89R, H101L, R104K, A105K, R108K
notes: also called IL-13 variant C2 (L10D, R11I, V18I, R86K, D87K, K89R, R108K)

Kd [4]: 1.9 nM
koff [4]: 0.0033 s⁻¹
kon [4]: 1.77e+06 M⁻¹ s⁻¹
Kd [6]: 0.267 nM
koff [6]: 0.0028 s⁻¹
kon [6]: 1.07e+07 M⁻¹ s⁻¹
B8: A6 (ligand)
cytokine: B5 cytokine with I18L, R86M, G87K
notes: also called IL-13 variant A6 (L10I, V18L, R86M, D87K, T88S, L101H, K104R, K105A)

Kd [6]: 0.272 nM
koff [6]: 0.00057 s⁻¹
kon [6]: 2.1e+06 M⁻¹ s⁻¹
Kd [7]: 35000 nM
B9: C7 (ligand)
cytokine: B5 cytokine with I10L, R11S, I14M, I18V, G87D, H101N, R104K, R108K
notes: also called IL-13 variant C7 (R11S, I14M, T88S, L101N, K105A, R108K)

Kd [4]: 0.084 nM
koff [4]: 0.0013 s⁻¹
kon [4]: 1.64e+07 M⁻¹ s⁻¹
Kd [6]: 0.391 nM
koff [6]: 0.006 s⁻¹
kon [6]: 1.62e+07 M⁻¹ s⁻¹
B10: A11 (ligand)
cytokine: B5 cytokine with I10V, G87S, H101F, A105T
notes: also called IL-13 variant A11 (L10V, V18I, D87S, T88S, L101F, K104R, K105T)

Kd [6]: 5 nM
koff [6]: 0.0061 s⁻¹
kon [6]: 1.19e+06 M⁻¹ s⁻¹
Kd [7]: 264 nM
B11: C10 (ligand)
cytokine: B5 cytokine with I10H, R11L, R86M, G87D, S88T, K89R, H101L, R104K, A105K, R108K
notes: also called IL-13 variant C10 (L10H, R11L, V18I, R86M, K89R, R108K)

Kd [4]: 2.94 nM
koff [4]: 0.0082 s⁻¹
kon [4]: 2.8e+06 M⁻¹ s⁻¹
Kd [5]: 50 nM
B12: A5 (ligand)
cytokine: B5 cytokine with I10L, R11I, R86K, F107M
notes: also called IL-13 variant A5 (R11I, V18I, R86K, D87G, T88S, L101H, K104R, K105A, F107M)

Kd [6]: 0.259 nM
koff [6]: 0.000529 s⁻¹
kon [6]: 2.03e+06 M⁻¹ s⁻¹
Kd [7]: 31000 nM
B13: C9 (ligand)
cytokine: B5 cytokine with I10H, R11L, R86K, G87E, S88T, K89R, H101N, R104K, A105T, R108K
notes: also called IL-13 variant C9 (L10H, R11L, V18I, R86K, D87E, K89R, L101N, K105T, R108K)

Kd [4]: 2.06 nM
koff [4]: 0.0033 s⁻¹
kon [4]: 1.64e+06 M⁻¹ s⁻¹
Kd [6]: 0.263 nM
koff [6]: 0.0026 s⁻¹
kon [6]: 1.01e+07 M⁻¹ s⁻¹
B14: A8 (ligand)
cytokine: B5 cytokine with G87S, K89R, A105T
notes: also called IL-13 variant A8 (L10I, V18I, D87S, T88S, K89R, L101H, K104R, K105T)

Kd [6]: 0.053 nM
koff [6]: 0.000404 s⁻¹
kon [6]: 7.61e+06 M⁻¹ s⁻¹
Kd [7]: 15000 nM
B15: C12 (ligand)
cytokine: B5 cytokine with I10H, I18V, R86M, G87D, K89R, H101N, R108K
notes: also called IL-13 variant C12 (L10H, R86M, T88S, K89R, L101N, K104R, K105A, R108K)

Kd [3]: 0.084 nM
koff [3]: 0.0013 s⁻¹
kon [3]: 1.64e+07 M⁻¹ s⁻¹
Kd [8]: 0.391 nM
koff [8]: 0.006 s⁻¹
kon [8]: 1.62e+07 M⁻¹ s⁻¹
B16: IL-13dn (ligand)
cytokine: B5 cytokine with I10V, E12A, R65D, G87S, H101F, A105T
notes: also called IL13dn (L10V, E12A, V18I, R65D, D87S, T88S, L101F, K104R, K105T)

Kd [6]: 0.379 nM
koff [6]: 0.002 s⁻¹
kon [6]: 6e+06 M⁻¹ s⁻¹
Kd [7]: 16000 nM
B17: C3 (ligand)
cytokine: B5 cytokine with I10A, I18V, R86T, S88K, K89R, H101N, R108K
notes: also called IL-13 variant C3 (L10A, R86T, D87G, T88K, K89R, L101N, K104R, K105A, R108K)

Kd [4]: 5.9 nM
koff [4]: 0.0082 s⁻¹
kon [4]: 1.4e+06 M⁻¹ s⁻¹
Kd [5]: 53 nM
B18: B6 (ligand)
cytokine: B5 cytokine with I10T, H101Y, A105T
notes: the sheet prints K at position 89 (same as wild type); also called IL-13 variant B6 (L10T, V18I, D87G, T88S, L101Y, K104R, K105T)
